Measurements published in patent publication US12043670B2, “Anti-BCMA antibody-drug conjugates and methods of use” (Eisai R&D Management Co., Ltd., priority 2020, dated 2024).

B1: AB200-R1H26-R2Vk18 (antibody)
heavy: QVQLVQSGAEVKKPGSSVKVSCKASGGSFSNYWMHWVRQAPGQGLEWMGATYRIHSDTFYNQKFKGRVTITADKSTSTAYMELSSLRSEDTAVYYCARGAIYHGYDVLDNWGQGTLVTVSSASTKGPSVFPLAPSSKSTSGGTAALGCLVKDYFPEPVTVSWNSGALTSGVHTFPAVLQSSGLYSLSSVVTVPSSSLGTQTYICNVNHKPSNTKVDKKVEPKSC
light: DIQMTQSPSSLSASVGDRVTITCRASQSISSYINWYQQKPGKAPKLLIYAASSLQSGVPSRFSGSGSGTDFTLTISSLQPEDFATYYCQQFRKIPWTFGQGTKLEIKRTVAAPSVFIFPPSDEQLKSGTASVVCLLNNFYPREAKVQWKVDNALQSGNSQESVTEQDSKDSTYSLSSTLTLSKADYEKHKVYACEVTHQGLSSPVTKSFNRGEC
B2: AB200-R1H26-R2Vk37 (antibody)
heavy: QVQLVQSGAEVKKPGSSVKVSCKASGGSFSNYWMHWVRQAPGQGLEWMGATYRIHSDTFYNQKFKGRVTITADKSTSTAYMELSSLRSEDTAVYYCARGAIYHGYDVLDNWGQGTLVTVSSASTKGPSVFPLAPSSKSTSGGTAALGCLVKDYFPEPVTVSWNSGALTSGVHTFPAVLQSSGLYSLSSVVTVPSSSLGTQTYICNVNHKPSNTKVDKKVEPKSC
light: DIQMTQSPSSLSASVGDRVTITCRASQSISSYINWYQQKPGKAPKLLIYATSNLQSGVPSRFSGSGSGTDFTLTISSLQPEDFATYYCQQYRKIPWSFGQGTKLEIKRTVAAPSVFIFPPSDEQLKSGTASVVCLLNNFYPREAKVQWKVDNALQSGNSQESVTEQDSKDSTYSLSSTLTLSKADYEKHKVYACEVTHQGLSSPVTKSFNRGEC
B3: AB200-R1H26-R2Vk2 (antibody)
heavy: QVQLVQSGAEVKKPGSSVKVSCKASGGSFSNYWMHWVRQAPGQGLEWMGATYRIHSDTFYNQKFKGRVTITADKSTSTAYMELSSLRSEDTAVYYCARGAIYHGYDVLDNWGQGTLVTVSSASTKGPSVFPLAPSSKSTSGGTAALGCLVKDYFPEPVTVSWNSGALTSGVHTFPAVLQSSGLYSLSSVVTVPSSSLGTQTYICNVNHKPSNTKVDKKVEPKSC
light: DIQMTQSPSSLSASVGDRVTITCRASQSISSYINWYQQKPGKAPKLLIYAASSLQSGVPSRFSGSGSGTDFTLTISSLQPEDFATYYCQQFRKLPWSFGQGTKLEIKRTVAAPSVFIFPPSDEQLKSGTASVVCLLNNFYPREAKVQWKVDNALQSGNSQESVTEQDSKDSTYSLSSTLTLSKADYEKHKVYACEVTHQGLSSPVTKSFNRGEC
B4: AB200-R1H26-R2Vk41 (antibody)
heavy: QVQLVQSGAEVKKPGSSVKVSCKASGGSFSNYWMHWVRQAPGQGLEWMGATYRIHSDTFYNQKFKGRVTITADKSTSTAYMELSSLRSEDTAVYYCARGAIYHGYDVLDNWGQGTLVTVSSASTKGPSVFPLAPSSKSTSGGTAALGCLVKDYFPEPVTVSWNSGALTSGVHTFPAVLQSSGLYSLSSVVTVPSSSLGTQTYICNVNHKPSNTKVDKKVEPKSC
light: DIQMTQSPSSLSASVGDRVTITCRASQSISSYINWYQQKPGKAPKLLIYATSNIQSGVPSRFSGSGSGTDFTLTISSLQPEDFATYYCQQFRRLPWTFGQGTKLEIKRTVAAPSVFIFPPSDEQLKSGTASVVCLLNNFYPREAKVQWKVDNALQSGNSQESVTEQDSKDSTYSLSSTLTLSKADYEKHKVYACEVTHQGLSSPVTKSFNRGEC
B5: AB200-R1H26-R2Vk43 (antibody)
heavy: QVQLVQSGAEVKKPGSSVKVSCKASGGSFSNYWMHWVRQAPGQGLEWMGATYRIHSDTFYNQKFKGRVTITADKSTSTAYMELSSLRSEDTAVYYCARGAIYHGYDVLDNWGQGTLVTVSSASTKGPSVFPLAPSSKSTSGGTAALGCLVKDYFPEPVTVSWNSGALTSGVHTFPAVLQSSGLYSLSSVVTVPSSSLGTQTYICNVNHKPSNTKVDKKVEPKSC
light: DIQMTQSPSSLSASVGDRVTITCRASQSISSYINWYQQKPGKAPKLLIYATSNIQSGVPSRFSGSGSGTDFTLTISSLQPEDFATYYCQQFRKIPWTFGQGTKLEIKRTVAAPSVFIFPPSDEQLKSGTASVVCLLNNFYPREAKVQWKVDNALQSGNSQESVTEQDSKDSTYSLSSTLTLSKADYEKHKVYACEVTHQGLSSPVTKSFNRGEC
B6: AB200-R1H26-R2Vk38 (antibody)
heavy: QVQLVQSGAEVKKPGSSVKVSCKASGGSFSNYWMHWVRQAPGQGLEWMGATYRIHSDTFYNQKFKGRVTITADKSTSTAYMELSSLRSEDTAVYYCARGAIYHGYDVLDNWGQGTLVTVSSASTKGPSVFPLAPSSKSTSGGTAALGCLVKDYFPEPVTVSWNSGALTSGVHTFPAVLQSSGLYSLSSVVTVPSSSLGTQTYICNVNHKPSNTKVDKKVEPKSC
light: DIQMTQSPSSLSASVGDRVTITCRASQSISSYINWYQQKPGKAPKLLIYATSNLQSGVPSRFSGSGSGTDFTLTISSLQPEDFATYYCQQFRKIPWTFGQGTKLEIKRTVAAPSVFIFPPSDEQLKSGTASVVCLLNNFYPREAKVQWKVDNALQSGNSQESVTEQDSKDSTYSLSSTLTLSKADYEKHKVYACEVTHQGLSSPVTKSFNRGEC
B7: AB200-R1H26-R2Vk27 (antibody)
heavy: QVQLVQSGAEVKKPGSSVKVSCKASGGSFSNYWMHWVRQAPGQGLEWMGATYRIHSDTFYNQKFKGRVTITADKSTSTAYMELSSLRSEDTAVYYCARGAIYHGYDVLDNWGQGTLVTVSSASTKGPSVFPLAPSSKSTSGGTAALGCLVKDYFPEPVTVSWNSGALTSGVHTFPAVLQSSGLYSLSSVVTVPSSSLGTQTYICNVNHKPSNTKVDKKVEPKSC
light: DIQMTQSPSSLSASVGDRVTITCRASQSISSYLNWYQQKPGKAPKLLIYATSNIQSGVPSRFSGSGSGTDFTLTISSLQPEDFATYYCQQYRKIPWSFGQGTKLEIKRTVAAPSVFIFPPSDEQLKSGTASVVCLLNNFYPREAKVQWKVDNALQSGNSQESVTEQDSKDSTYSLSSTLTLSKADYEKHKVYACEVTHQGLSSPVTKSFNRGEC
B8: AB200-R1H26-R2Vk47 (antibody)
heavy: QVQLVQSGAEVKKPGSSVKVSCKASGGSFSNYWMHWVRQAPGQGLEWMGATYRIHSDTFYNQKFKGRVTITADKSTSTAYMELSSLRSEDTAVYYCARGAIYHGYDVLDNWGQGTLVTVSSASTKGPSVFPLAPSSKSTSGGTAALGCLVKDYFPEPVTVSWNSGALTSGVHTFPAVLQSSGLYSLSSVVTVPSSSLGTQTYICNVNHKPSNTKVDKKVEPKSC
light: DIQMTQSPSSLSASVGDRVTITCRASQSISSYINWYQQKPGKAPKLLIYATSNLQIGVPSRFSGSGSGTDFTLTISSLQPEDFATYYCQQYRKIPWSFGQGTKLEIKRTVAAPSVFIFPPSDEQLKSGTASVVCLLNNFYPREAKVQWKVDNALQSGNSQESVTEQDSKDSTYSLSSTLTLSKADYEKHKVYACEVTHQGLSSPVTKSFNRGEC
B9: AB200-R1H26-R2Vk42 (antibody)
heavy: QVQLVQSGAEVKKPGSSVKVSCKASGGSFSNYWMHWVRQAPGQGLEWMGATYRIHSDTFYNQKFKGRVTITADKSTSTAYMELSSLRSEDTAVYYCARGAIYHGYDVLDNWGQGTLVTVSSASTKGPSVFPLAPSSKSTSGGTAALGCLVKDYFPEPVTVSWNSGALTSGVHTFPAVLQSSGLYSLSSVVTVPSSSLGTQTYICNVNHKPSNTKVDKKVEPKSC
light: DIQMTQSPSSLSASVGDRVTITCRASQSISSYINWYQQKPGKAPKLLIYATSNIQSGVPSRFSGSGSGTDFTLTISSLQPEDFATYYCQQYRKIPWSFGQGTKLEIKRTVAAPSVFIFPPSDEQLKSGTASVVCLLNNFYPREAKVQWKVDNALQSGNSQESVTEQDSKDSTYSLSSTLTLSKADYEKHKVYACEVTHQGLSSPVTKSFNRGEC
B10: AB200-R1H26-R2Vk40 (antibody)
heavy: QVQLVQSGAEVKKPGSSVKVSCKASGGSFSNYWMHWVRQAPGQGLEWMGATYRIHSDTFYNQKFKGRVTITADKSTSTAYMELSSLRSEDTAVYYCARGAIYHGYDVLDNWGQGTLVTVSSASTKGPSVFPLAPSSKSTSGGTAALGCLVKDYFPEPVTVSWNSGALTSGVHTFPAVLQSSGLYSLSSVVTVPSSSLGTQTYICNVNHKPSNTKVDKKVEPKSC
light: DIQMTQSPSSLSASVGDRVTITCRASQSISSYINWYQQKPGKAPKLLIYATSNIQSGVPSRFSGSGSGTDFTLTISSLQPEDFATYYCQQYRRIPWTFGQGTKLEIKRTVAAPSVFIFPPSDEQLKSGTASVVCLLNNFYPREAKVQWKVDNALQSGNSQESVTEQDSKDSTYSLSSTLTLSKADYEKHKVYACEVTHQGLSSPVTKSFNRGEC
B11: AB200-R1H26-R2Vk28 (antibody)
heavy: QVQLVQSGAEVKKPGSSVKVSCKASGGSFSNYWMHWVRQAPGQGLEWMGATYRIHSDTFYNQKFKGRVTITADKSTSTAYMELSSLRSEDTAVYYCARGAIYHGYDVLDNWGQGTLVTVSSASTKGPSVFPLAPSSKSTSGGTAALGCLVKDYFPEPVTVSWNSGALTSGVHTFPAVLQSSGLYSLSSVVTVPSSSLGTQTYICNVNHKPSNTKVDKKVEPKSC
light: DIQMTQSPSSLSASVGDRVTITCRASQSISSYLNWYQQKPGKAPKLLIYATSNIQSGVPSRFSGSGSGTDFTLTISSLQPEDFATYYCQQFRKIPWTFGQGTKLEIKRTVAAPSVFIFPPSDEQLKSGTASVVCLLNNFYPREAKVQWKVDNALQSGNSQESVTEQDSKDSTYSLSSTLTLSKADYEKHKVYACEVTHQGLSSPVTKSFNRGEC
B12: AB200-R1H26-R2Vk39 (antibody)
heavy: QVQLVQSGAEVKKPGSSVKVSCKASGGSFSNYWMHWVRQAPGQGLEWMGATYRIHSDTFYNQKFKGRVTITADKSTSTAYMELSSLRSEDTAVYYCARGAIYHGYDVLDNWGQGTLVTVSSASTKGPSVFPLAPSSKSTSGGTAALGCLVKDYFPEPVTVSWNSGALTSGVHTFPAVLQSSGLYSLSSVVTVPSSSLGTQTYICNVNHKPSNTKVDKKVEPKSC
light: DIQMTQSPSSLSASVGDRVTITCRASQSISSYINWYQQKPGKAPKLLIYATSNIQSGVPSRFSGSGSGTDFTLTISSLQPEDFATYYCQQYRRLPWSFGQGTKLEIKRTVAAPSVFIFPPSDEQLKSGTASVVCLLNNFYPREAKVQWKVDNALQSGNSQESVTEQDSKDSTYSLSSTLTLSKADYEKHKVYACEVTHQGLSSPVTKSFNRGEC

experiment: ThermoFluor thermostability (Tm); type: physicochemical; conditions: Light chain screening Round 2; Fab, paired with heavy chain AB200_R1_VH26

Molecule	Tm
B1	82.729 °C
B2	79.374 °C
B3	82.119 °C
B4	83.256 °C
B5	82.001 °C
B6	83.791 °C
B7	79.104 °C
B8	78.634 °C
B9	78.411 °C
B10	79.308 °C
B11	82.966 °C
B12	78.907 °C
